For assay [1], the target named is C-X-C chemokine receptor type 4 (feline, on cultured hippocampal neurons) (cat (endogenous in cultured feline hippocampal neurons)) (UniProt P56498).
For assay [2], the target named is C-X-C chemokine receptor type 4 (mouse, on cultured hippocampal neurons) (mouse (endogenous in cultured hippocampal neurons)) (UniProt P70658).
The target is the same in assay [3]. The source holds these as a separate data set.

Chain of UniProt P70658 (P70658 whole entry): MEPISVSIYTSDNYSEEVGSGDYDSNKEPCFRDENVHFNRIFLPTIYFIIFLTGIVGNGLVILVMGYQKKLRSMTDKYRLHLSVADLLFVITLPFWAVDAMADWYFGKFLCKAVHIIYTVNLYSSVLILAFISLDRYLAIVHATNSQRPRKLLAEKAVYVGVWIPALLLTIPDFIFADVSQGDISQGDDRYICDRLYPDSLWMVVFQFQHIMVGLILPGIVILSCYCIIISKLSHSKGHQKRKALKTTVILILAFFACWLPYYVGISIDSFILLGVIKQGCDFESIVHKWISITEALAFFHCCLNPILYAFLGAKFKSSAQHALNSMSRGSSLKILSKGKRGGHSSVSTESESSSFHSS
Chain of UniProt P56498 (P56498 whole entry): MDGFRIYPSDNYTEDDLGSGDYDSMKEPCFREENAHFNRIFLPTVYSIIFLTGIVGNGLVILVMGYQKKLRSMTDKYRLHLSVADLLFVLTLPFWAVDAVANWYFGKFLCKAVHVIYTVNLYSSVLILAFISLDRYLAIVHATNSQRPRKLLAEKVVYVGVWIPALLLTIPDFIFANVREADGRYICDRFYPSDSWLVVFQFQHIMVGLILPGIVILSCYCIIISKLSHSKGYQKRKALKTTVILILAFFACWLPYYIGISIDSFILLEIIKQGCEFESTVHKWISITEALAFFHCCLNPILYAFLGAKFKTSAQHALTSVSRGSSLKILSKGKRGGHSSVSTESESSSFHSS

For the substance “FIV envelope glycoprotein gp95 (Fc fusion)”, the normalised total Ca2+ activity (GCaMP5 imaging) in cultured feline hippocampal neurons treated with 1-nM gp95 and 200-nM AMD3100 (CXCR4 antagonist) in assay [1] was 0.99 ΔF/Fmin. In assay [2], the normalised total Ca2+ activity (GCaMP5 imaging) in cultured mouse hippocampal neurons treated with 1-nM gp95 and 200-nM AMD3100 (CXCR4 antagonist) was 1.18 ΔF/Fmin. Take “HIV-1 IIIB gp120 Recombinant Protein (from UniProt P04578 33-511) (ligand)”: the normalised total Ca2+ activity (GCaMP5 imaging) in cultured mouse hippocampal neurons treated with 1-nM gp120 (IIIB) and 200-nM AMD3100 (CXCR4 antagonist) in assay [3] was 0.85 ΔF/Fmin.

For the substance “stromal cell-derived factor-1 (from UniProt P48061 22-93) (ligand)”, in assay [3], the normalised total Ca2+ activity (GCaMP5 imaging) in cultured mouse hippocampal neurons treated with 20-nM SDF-1 and 200-nM AMD3100 (CXCR4 antagonist) was 1.26 ΔF/Fmin.

For the origin of these results see article PMC6082575.
